T1: MerR (Tn501) (Pseudomonas aeruginosa (Tn501), UniProt P0A183 1-144)
T1 sequence: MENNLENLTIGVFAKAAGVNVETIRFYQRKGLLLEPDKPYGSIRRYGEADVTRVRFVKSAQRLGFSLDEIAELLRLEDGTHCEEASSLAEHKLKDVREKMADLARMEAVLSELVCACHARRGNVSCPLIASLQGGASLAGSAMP

B1: Pmer-M11 (dsDNA)
DNA 1: TTGACTCCGTACATGAGTACGGAATAAGGT
DNA 2: ACCTTATTCCGTACTCATGTACGGAGTCAA
B2: Pmer-M14 (dsDNA)
DNA 1: TTGACTCCGTACATGAGTACGGTAAGGT
DNA 2: ACCTTACCGTACTCATGTACGGAGTCAA
B3: Pmer-M1 (dsDNA)
DNA 1: TTGACTCGTACATGAGTACGGAAGTAAGGT
DNA 2: ACCTTACTTCCGTACTCATGTACGAGTCAA
B4: Pmer-M7 (dsDNA)
DNA 1: TTGACTCCGTACATGAGACGGAAGTAAGGT
DNA 2: ACCTTACTTCCGTCTCATGTACGGAGTCAA
B5: Pmer-M12 (dsDNA)
DNA 1: TTGACTCCGTACATGAGTACGGGTAAGGT
DNA 2: ACCTTACCCGTACTCATGTACGGAGTCAA
B6: Pmer-M4 (dsDNA)
DNA 1: TTGACTCCGTACTGAGTACGGAAGTAAGGT
DNA 2: ACCTTACTTCCGTACTCAGTACGGAGTCAA
B7: Pmer-M10 (dsDNA)
DNA 1: B1 DNA 1 with A24G
DNA 2: B1 DNA 2 with T7C

Substitutions are numbered along the chain they refer to.

This data set has as its target T1, MerR (Tn501). Nature of the data set: EMSA; 0-600 nM MerR, 30 nM DNA, no Hg stated; 10 mM Tris-HCl pH 8.0, 50 mM KCl, 5 mM MgCl2, 10% glycerol, 25 C 10 min; 8% native PAGE, 80 V 45 min. The conditions noted are these: protein: recombinant; chain copies: 2; blunt. For orientation: Mobility shift assays separate free from complexed probe on a gel.
Turning to B1, the binding result is “binds”.
Consider B2, for which the binding result is given as “binds”.
To B3 belongs “binds”.
To B4 belongs “no binding”; to B5, “binds”.
To B6 belongs “no binding”; to B7, “binds”.

The values are drawn from PMC11049809, “Determinants of mer Promoter Activity from Pseudomonas aeruginosa”.
